Source: FireProtDB (doi:10.1021/bi027116n)
Where “and” joins values, the source holds several entries; their conditions need not be identical. Equal values may be shown once.

Details: Aquifex aeolicus (strain VF5), reversible: no, whole UniProt chain shown; for denaturant midpoint (higher = more stable): 20 °C, GdnHCl

B1: 2Fe-2S ferredoxin-5 wild type, P59799 (protein)
chain: MPKVIVANINAEFEGIENETIMQILYRNGIEIDSACGGHGQCTSCKVLIISGSENLYPAEFEEKDTLEENGMDPETERLSCQAKLNGKGDVVIYLP
denaturant midpoint (higher = more stable) (pH 4, Absorbance, citric acid-NaH2PO4): 3.2 M | denaturant midpoint (higher = more stable) (pH 4, Emission, citric acid-NaH2PO4): 3.2 M | denaturant midpoint (higher = more stable) (pH 5, Absorbance, Unknown): 6.7 M | denaturant midpoint (higher = more stable) (pH 5, CD, Unknown): 6.7 M | denaturant midpoint (higher = more stable) (pH 5, Emission, Unknown): 6.9 M | denaturant midpoint (higher = more stable) (pH 10, Absorbance, Glycine-OH): 7.5 M and 7.1 M | denaturant midpoint (higher = more stable) (pH 10, CD, Glycine-OH): 7 M | denaturant midpoint (higher = more stable) (pH 10, CD, glycine-OH): 6.6 M and 6.3 M and 6.1 M | denaturant midpoint (higher = more stable) (pH 10, Emission, Glycine-OH): 7 M | denaturant midpoint (higher = more stable) (pH 10, Emission, glycine-OH): 6.5 M and 6.1 M | Tm (pH 10, Thermal, Absorbance, Glycine-OH): 116 °C | denaturant midpoint (higher = more stable) (pH 11, CD, NaHCO3-NaOH): 6.2 M | denaturant midpoint (higher = more stable) (pH 11, Emission, NaHCO3-NaOH): 6.2 M
